How the values were obtained:
[1] = target: T1, ANXA11 Ct (UniProt P50995 201-505); assay: MST
T1 sequence: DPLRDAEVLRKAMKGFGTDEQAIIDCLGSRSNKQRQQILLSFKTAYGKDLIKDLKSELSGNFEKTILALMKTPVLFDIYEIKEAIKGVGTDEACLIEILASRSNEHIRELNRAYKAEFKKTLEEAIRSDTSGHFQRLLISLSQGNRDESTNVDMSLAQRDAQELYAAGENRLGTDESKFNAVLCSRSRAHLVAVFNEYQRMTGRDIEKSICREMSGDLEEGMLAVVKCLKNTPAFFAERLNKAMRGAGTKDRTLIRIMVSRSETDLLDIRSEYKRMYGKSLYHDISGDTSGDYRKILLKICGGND

[2] = target: ANXA11 Nt (UniProt P50995 1-191); assay: MST
Sequence of ANXA11 Nt (P50995 1-191): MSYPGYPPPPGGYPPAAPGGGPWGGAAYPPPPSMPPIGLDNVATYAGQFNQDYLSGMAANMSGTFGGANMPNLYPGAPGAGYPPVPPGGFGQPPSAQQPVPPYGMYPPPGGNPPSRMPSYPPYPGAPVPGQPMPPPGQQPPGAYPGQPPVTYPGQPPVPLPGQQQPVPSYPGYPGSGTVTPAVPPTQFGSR

**Q.** Which Kd [1] does the source give for UUUUUUUUUU (ssRNA) [poly-U 10-mer RNA] here?
**A.** The Kd was 3.55 ± 0.3 µM.

**Q.** What about the Kd [2] of the same binder?
**A.** Its Kd is 4.18 ± 0.8 µM.

From paper doi:10.1101/2025.10.27.684738
